One assay relates to GFP-14-3-3β. The assay is described as follows: GFP-14-3-3β co-IP with LC-MS/MS, untreated GFP-14-3-3β versus GFP control (14-3-3 interactome). The format is binding, human. The conditions noted are these: untreated vs GFP; LFQ intensities; 3 replicates each.
The test system of assay [1] is GFP-14-3-3β and its binding proteins. Put plainly: GFP-14-3-3β co-IP with LC-MS/MS label-free quantification, untreated versus PP1c-treated. More on the design: species or system human. The conditions noted are these: PP1 vs untreated; LFQ intensities; 3 replicates each.

B1: DHX29 (protein, UniProt Q7Z478 1-1369, looked up)
ATP-dependent RNA helicase …: MGGKNKKHKAPAAAVVRAAVSASRAKSAEAGIAGEAQSKKPVSRPATAAAAAAGSREPRVKQGPKIYSFNSTNDSSGPANLDKSILKVVINNKLEQRIIGVINEHKKQNNDKGMISGRLTAKKLQDLYMALQAFSFKTKDIEDAMTNTLLYGGDLHSALDWLCLNLSDDALPEGFSQEFEEQQPKSRPKFQSPQIQATISPPLQPKTKTYEEDPKSKPKKEEKNMEVNMKEWILRYAEQQNEEEKNENSKSLEEEEKFDPNERYLHLAAKLLDAKEQAATFKLEKNKQGQKEAQEKIRKFQREMETLEDHPVFNPAMKISHQQNERKKPPVATEGESALNFNLFEKSAAATEEEKDKKKEPHDVRNFDYTARSWTGKSPKQFLIDWVRKNLPKSPNPSFEKVPVGRYWKCRVRVIKSEDDVLVVCPTILTEDGMQAQHLGATLALYRLVKGQSVHQLLPPTYRDVWLEWSDAEKKREELNKMETNKPRDLFIAKLLNKLKQQQQQQQQHSENKRENSEDPEESWENLVSDEDFSALSLESANVEDLEPVRNLFRKLQSTPKYQKLLKERQQLPVFKHRDSIVETLKRHRVVVVAGETGSGKSTQVPHFLLEDLLLNEWEASKCNIVCTQPRRISAVSLANRVCDELGCENGPGGRNSLCGYQIRMESRACESTRLLYCTTGVLLRKLQEDGLLSNVSHVIVDEVHERSVQSDFLLIILKEILQKRSDLHLILMSATVDSEKFSTYFTHCPILRISGRSYPVEVFHLEDIIEETGFVLEKDSEYCQKFLEEEEEVTINVTSKAGGIKKYQEYIPVQTGAHADLNPFYQKYSSRTQHAILYMNPHKINLDLILELLAYLDKSPQFRNIEGAVLIFLPGLAHIQQLYDLLSNDRRFYSERYKVIALHSILSTQDQAAAFTLPPPGVRKIVLATNIAETGITIPDVVFVIDTGRTKENKYHESSQMSSLVETFVSKASALQRQGRAGRVRDGFCFRMYTRERFEGFMDYSVPEILRVPLEELCLHIMKCNLGSPEDFLSKALDPPQLQVISNAMNLLRKIGACELNEPKLTPLGQHLAALPVNVKIGKMLIFGAIFGCLDPVATLAAVMTEKSPFTTPIGRKDEADLAKSALAMADSDHLTIYNAYLGWKKARQEGGYRSEITYCRRNFLNRTSLLTLEDVKQELIKLVKAAGFSSSTTSTSWEGNRASQTLSFQEIALLKAVLVAGLYDNVGKIIYTKSVDVTEKLACIVETAQGKAQVHPSSVNRDLQTHGWLLYQEKIRYARVYLRETTLITPFPVLLFGGDIEVQHRERLLSIDGWIYFQAPVKIAVIFKQLRVLIDSVLRKKLENPKMSLENDKILQIITELIKTENN
Consider B1, for which the “Difference (log2), untreated vs GFP” value in the assay on GFP-14-3-3β stood at 1.239 log2. Also, in assay [1], the “Difference (log2), PP1 vs untreated” value was found to be 0.5459 log2.

B2: PABPC4 (protein, UniProt Q13310 1-644, looked up)
Polyadenylate-binding protein …: MNAAASSYPMASLYVGDLHSDVTEAMLYEKFSPAGPVLSIRVCRDMITRRSLGYAYVNFQQPADAERALDTMNFDVIKGKPIRIMWSQRDPSLRKSGVGNVFIKNLDKSIDNKALYDTFSAFGNILSCKVVCDENGSKGYAFVHFETQEAADKAIEKMNGMLLNDRKVFVGRFKSRKEREAELGAKAKEFTNVYIKNFGEEVDDESLKELFSQFGKTLSVKVMRDPNGKSKGFGFVSYEKHEDANKAVEEMNGKEISGKIIFVGRAQKKVERQAELKRKFEQLKQERISRYQGVNLYIKNLDDTIDDEKLRKEFSPFGSITSAKVMLEDGRSKGFGFVCFSSPEEATKAVTEMNGRIVGSKPLYVALAQRKEERKAHLTNQYMQRVAGMRALPANAILNQFQPAAGGYFVPAVPQAQGRPPYYTPNQLAQMRPNPRWQQGGRPQGFQGMPSAIRQSGPRPTLRHLAPTGSECPDRLAMDFGGAGAAQQGLTDSCQSGGVPTAVQNLAPRAAVAAAAPRAVAPYKYASSVRSPHPAIQPLQAPQPAVHVQGQEPLTASMLAAAPPQEQKQMLGERLFPLIQTMHSNLAGKITGMLLEIDNSELLHMLESPESLRSKVDEAVAVLQAHHAKKEAAQKVGAVAAATS
Take B2: the “Difference (log2), untreated vs GFP” value in the assay on GFP-14-3-3β was 2.4022 log2. The “Difference (log2), PP1 vs untreated” value in assay [1] turned out to be 0.5259 log2.

B3: COPA (protein, UniProt P53621 1-1224, looked up)
Coatomer subunit alpha: MLTKFETKSARVKGLSFHPKRPWILTSLHNGVIQLWDYRMCTLIDKFDEHDGPVRGIDFHKQQPLFVSGGDDYKIKVWNYKLRRCLFTLLGHLDYIRTTFFHHEYPWILSASDDQTIRVWNWQSRTCVCVLTGHNHYVMCAQFHPTEDLVVSASLDQTVRVWDISGLRKKNLSPGAVESDVRGITGVDLFGTTDAVVKHVLEGHDRGVNWAAFHPTMPLIVSGADDRQVKIWRMNESKAWEVDTCRGHYNNVSCAVFHPRQELILSNSEDKSIRVWDMSKRTGVQTFRRDHDRFWVLAAHPNLNLFAAGHDGGMIVFKLERERPAYAVHGNMLHYVKDRFLRQLDFNSSKDVAVMQLRSGSKFPVFNMSYNPAENAVLLCTRASNLENSTYDLYTIPKDADSQNPDAPEGKRSSGLTAVWVARNRFAVLDRMHSLLIKNLKNEITKKVQVPNCDEIFYAGTGNLLLRDADSITLFDVQQKRTLASVKISKVKYVIWSADMSHVALLAKHAIVICNRKLDALCNIHENIRVKSGAWDESGVFIYTTSNHIKYAVTTGDHGIIRTLDLPIYVTRVKGNNVYCLDRECRPRVLTIDPTEFKFKLALINRKYDEVLHMVRNAKLVGQSIIAYLQKKGYPEVALHFVKDEKTRFSLALECGNIEIALEAAKALDDKNCWEKLGEVALLQGNHQIVEMCYQRTKNFDKLSFLYLITGNLEKLRKMMKIAEIRKDMSGHYQNALYLGDVSERVRILKNCGQKSLAYLTAATHGLDEEAESLKETFDPEKETIPDIDPNAKLLQPPAPIMPLDTNWPLLTVSKGFFEGTIASKGKGGALAADIDIDTVGTEGWGEDAELQLDEDGFVEATEGLGDDALGKGQEEGGGWDVEEDLELPPELDISPGAAGGAEDGFFVPPTKGTSPTQIWCNNSQLPVDHILAGSFETAMRLLHDQVGVIQFGPYKQLFLQTYARGRTTYQALPCLPSMYGYPNRNWKDAGLKNGVPAVGLKLNDLIQRLQLCYQLTTVGKFEEAVEKFRSILLSVPLLVVDNKQEIAEAQQLITICREYIVGLSVETERKKLPKETLEQQKRICEMAAYFTHSNLQPVHMILVLRTALNLFFKLKNFKTAATFARRLLELGPKPEVAQQTRKILSACEKNPTDAYQLNYDMHNPFDICAASYRPIYRGKPVEKCPLSGACYSPEFKGQICRVTTVTEIGKDVIGLRISPLQFR
Consider B3, for which, in the assay with GFP-14-3-3β, the “Difference (log2), untreated vs GFP” value is on record as -0.09761 log2. Also, the “Difference (log2), PP1 vs untreated” value in assay [1] is on record as 0.5643 log2.

B4: PHLDB2 (protein, UniProt Q86SQ0 1-1253, looked up)
Pleckstrin homology-like …: MEEHSYIQKELDLQNGSLEEDSVVHSVENDSQNMMESLSPKKYSSSLRFKANGDYSGSYLTLSQPVPAKRSPSPLGTSVRSSPSLAKIQGSKQFSYDGTDKNIPMKPPTPLLNTTSSLSGYPLGRADFDHYTGRDSERALRLSEKPPYSKYSSRHKSHDNVYSLGGLEGRKASGSLLAMWNGSSLSDAGPPPISRSGAASMPSSPKQARKMSIQDSLALQPKLTRHKELASENINLRTRKYSSSSLSHMGAYSRSLPRLYRATENQLTPLSLPPRNSLGNSKRTKLGEKDLPHSVIDNDNYLNFSSLSSGALPYKTSASEGNPYVSSTLSVPASPRVARKMLLASTSSCASDDFDQASYVGTNPSHSLLAGESDRVFATRRNFSCGSVEFDEADLESLRQASGTPQPALRERKSSISSISGRDDLMDYHRRQREERLREQEMERLERQRLETILSLCAEYTKPDSRLSTGTTVEDVQKINKELEKLQLSDEESVFEEALMSPDTRYRCHRKDSLPDADLASCGSLSQSSASFFTPRSTRNDELLSDLTRTPPPPSSTFPKASSESSYLSILPKTPEGISEEQRSQELAAMEETRIVILNNLEELKQKIKDINDQMDESFRELDMECALLDGEQKSETTELMKEKEILDHLNRKIAELEKNIVGEKTKEKVKLDAEREKLERLQELYSEQKTQLDNCPESMREQLQQQLKRDADLLDVESKHFEDLEFQQLEHESRLDEEKENLTQQLLREVAEYQRNIVSRKEKISALKKQANHIVQQAQREQDHFVKEKNNLIMMLQREKENLCNLEKKYSSLSGGKGFPVNPNTLKEGYISVNEINEPCGNSTNLSPSTQFPADADAVATEPATAVLASQPQSKEHFRSLEERKKQHKEGLYLSDTLPRKKTTSSISPHFSSATMGRSITPKAHLPLGQSNSCGSVLPPSLAAMAKDSESRRMLRGYNHQQMSEGHRQKSEFYNRTASESNVYLNSFHYPDHSYKDQAFDTLSLDSSDSMETSISACSPDNISSASTSNIARIEEMERLLKQAHAEKTRLLESREREMEAKKRALEEEKRRREILEKRLQEETSQRQKLIEKEVKIRERQRAQARPLTRYLPVRKEDFDLRSHVETAGHNIDTCYHVSITEKTCRGFLIKMGGKIKTWKKRWFVFDRNKRTFSYYADKHETKLKGVIYFQAIEEVYYDHLKNANKSPNPLLTFSVKTHDRIYYMVAPSPEAMRIWMDVIVTGAEGYTHFLL
As to B4, in the assay with GFP-14-3-3β, the “Difference (log2), untreated vs GFP” value turned out to be 1.653 log2. Moreover, in assay [1], the “Difference (log2), PP1 vs untreated” value is recorded as 0.5277 log2.

B5: HNRNPD (protein, UniProt Q14103 2-355, looked up)
Heterogeneous nuclear …: SEEQFGGDGAAAAATAAVGGSAGEQEGAMVAATQGAAAAAGSGAGTGGGTASGGTEGGSAESEGAKIDASKNEEDEGHSNSSPRHSEAATAQREEWKMFIGGLSWDTTKKDLKDYFSKFGEVVDCTLKLDPITGRSRGFGFVLFKESESVDKVMDQKEHKLNGKVIDPKRAKAMKTKEPVKKIFVGGLSPDTPEEKIREYFGGFGEVESIELPMDNKTNKRRGFCFITFKEEEPVKKIMEKKYHNVGLSKCEIKVAMSKEQYQQQQQWGSRGGFAGRARGRGGGPSQNWNQGYSNYWNQGYGNYGYNSQGYGGYGGYDYTGYNNYYGYGDYSNQQSGYGKVSRRGGHQNSYKPY
Take B5: in the assay on GFP-14-3-3β, the “Difference (log2), untreated vs GFP” value was determined as 0.1919 log2. In addition, the “Difference (log2), PP1 vs untreated” value in assay [1] was 0.5387 log2.

B6: SLC2A1 (protein, UniProt P11166 1-492, looked up)
Solute carrier family 2, …: MEPSSKKLTGRLMLAVGGAVLGSLQFGYNTGVINAPQKVIEEFYNQTWVHRYGESILPTTLTTLWSLSVAIFSVGGMIGSFSVGLFVNRFGRRNSMLMMNLLAFVSAVLMGFSKLGKSFEMLILGRFIIGVYCGLTTGFVPMYVGEVSPTALRGALGTLHQLGIVVGILIAQVFGLDSIMGNKDLWPLLLSIIFIPALLQCIVLPFCPESPRFLLINRNEENRAKSVLKKLRGTADVTHDLQEMKEESRQMMREKKVTILELFRSPAYRQPILIAVVLQLSQQLSGINAVFYYSTSIFEKAGVQQPVYATIGSGIVNTAFTVVSLFVVERAGRRTLHLIGLAGMAGCAILMTIALALLEQLPWMSYLSIVAIFGFVAFFEVGPGPIPWFIVAELFSQGPRPAAIAVAGFSNWTSNFIVGMCFQYVEQLCGPYVFIIFTVLLVLFFIFTYFKVPETKGRTFDEIASGFRQGGASQSDKTPEELFHPLGADSQV
As for B6, in the assay on GFP-14-3-3β, the “Difference (log2), untreated vs GFP” value is recorded as -0.3989 log2. Besides, the “Difference (log2), PP1 vs untreated” value in assay [1] is 0.5451 log2.

B7: RCN1 (protein, UniProt Q15293 30-331, looked up)
Reticulocalbin-1: KPTVRKERVVRPDSELGERPPEDNQSFQYDHEAFLGKEDSKTFDQLTPDESKERLGKIVDRIDNDGDGFVTTEELKTWIKRVQKRYIFDNVAKVWKDYDRDKDDKISWEEYKQATYGYYLGNPAEFHDSSDHHTFKKMLPRDERRFKAADLNGDLTATREEFTAFLHPEEFEHMKEIVVLETLEDIDKNGDGFVDQDEYIADMFSHEENGPEPDWVLSEREQFNEFRDLNKDGKLDKDEIRHWILPQDYDHAQAEARHLVYESDKNKDEKLTKEEILENWNMFVGSQATNYGEDLTKNHDEL
For B7, the “Difference (log2), untreated vs GFP” value in the assay with GFP-14-3-3β is -0.5528 log2. Besides, the “Difference (log2), PP1 vs untreated” value in assay [1] was 0.5407 log2.

These data come from paper PMC7367873, “Dissecting the sequence determinants for dephosphorylation by the catalytic subunits of phosphatases PP1 and PP2A” (Nature Communications, 2020).
